From patent publication US20040253214A1

Target: bovine EGF receptor on MDBK cells (bovine) (UniProt F1N7F3)
Test: cell-based or functional assay

Substance: EXGaLVMoT chimeric envelope (EGF displayed through a factor Xa-cleavable linker as an N-terminal extension of the Gibbon Ape Leukaemia virus SU glycoprotein), on retroviral vector particles (from UniProt P01133 971-1023; P21415 43-653; P03385 633-665)
- Titre of GaLV vectors on EGF-R positive cells, MDBK, +Xa (displayed EGF domain cleaved with factor Xa before infection): 12 efu/ml
- Titre of GaLV vectors on EGF-R positive cells, MDBK, -Xa: < 1 efu/ml
